Entries after “also recorded” stand apart in the source; their conditions may differ. Read-outs that look alike come from different tables or passages of the source.
How the values were obtained:
HGM cells = experiment: 2D HC-CAPA (chloroalkane penetration assay), cytosolic delivery in 2D cell culture; format: cell-based; conditions: 4 h; for CP50, half maximal cell-penetration concentration: HGM cells (HeLa stably expressing HaloTag-GFP-Mito), complexes 0 to max 20 μM in Leibovitz's, 37 °C, then HRO 2 5 μM 15 min, high-content fluorescence imaging, Hill analysis of DRCs, duplicates; for Uptake activity in 2D CAPA, in words: HGM cells, up to 20 μM
Procedure: Cytosolic delivery into 2D cell culture was determined first using the chloroalkane penetration assay (CAPA).[55–57] This assay has been introduced recently by Kritzer et al. as a reliable tool to quantitatively measure cytosolic delivery.[55–57] The CAPA method operates with HGM cells, i.e. HeLa cells that stably express a fusion protein of HaloTag and GFP on mitochondria (Fig. 1c). Chloroalkylated transporters that reach the cytosol will react with these HaloTags, while all unused HaloTags will react with subsequently added chloroalkylated TAMRA 2. The result is decreasing TAMRA fluorescence with increasing uptake of transporters. Automated high-content high-throughput imaging has been introduced to measure TAMRA fluorescence only inside of healthy cells and generate high-precision dose–response curves (DRCs, Fig. 3) while simultaneously reporting on cell viability.[50] The uptake efficiency is reported as CP50 value, that is the transporter concentration needed to inhibit HaloTag labeling with 2 by 50%, determined by the Hill analysis of DRCs. In conventional 2D cell culture, complex 1 afforded CP50 = 3.6 ± 0.3 μM (Fig. 2, 3a, filled circles, Table 1).
Complex 22 was similarly prepared using 6 µL of peptide 12 (10 mM in DMSO, 3 […]
Complex 23 was similarly prepared using 4 µL of peptide 13 (10 mM in DMSO, 2 […]
Complex 24 was similarly prepared using 2 µL each of peptides 12 and 13 (10 mM in DMSO, 1 equivalent each).
Complex 25 was similarly prepared using 4 µL of peptide 14 (10 mM in DMSO, 2 […]
Complex 26 was similarly prepared using 2 µL each of peptides 13 and 14 (10 mM in […]
HeLa cells stably expressing the HaloTag-GFP-Mito fusion protein (HGM): The cells were originally designed by the Chenoweth lab as described in ref. S10. They were cultured using the described procedure in ref. S4.
3.2.1 General HC-CAPA protocol
As in ref. S11, HGM cells were seeded at 8 ×10^4 cells/mL in FluoroBrite DMEM + 10% FBS on μ-Plates 96-well ibiTreat sterile and kept at 37 °C with 5% CO2 overnight. Next day, cells were washed with PBS ([…]) and the media were exchanged to Leibovitz’s (4 × 150 μL/well) using a plate washer, keeping a final volume of 135 μL/well. Then, serial dilutions of the corresponding complexes 1, 15-26 in PBS were prepared in a 96-well V-bottom plate and added to the μ-Plate containing the cells (15 μL/well, 10x final concentration in PBS) to reach a final volume of 150 μL/well (0 to maximum 20 μM). Cells were incubated for 4 h at […]
37 °C with 5% CO2. After this, cells were washed again and HRO 2 was added (15 μL/well, 50 μM in PBS) to reach a final volume of 150 μL/well (5 μM), except for the control wells, where only PBS was added (15 μL/well). After 15 min of incubation at 37 °C with 5% CO 2, the plate was washed again. Then, Hoechst 33342 was added (15 μL/well, 170 μM in PBS) to reach a final volume of 150 μL/well (17 μM). After 15 min of incubation at 37 °C with 5% CO2, the plate was washed one last time and the cells were kept in clean Leibovitz’s media.
During imaging, samples were kept at 37 °C with 5% CO2. A total of 16 images/well at 40x were recorded, using three channels: blue (excitation filter: 37 7/50 nm, emission filter: 477/60 nm, exposure time: 10 ms), green (excitation filter: 475/34 nm, emission filter: 536/40 nm, exposure time: 20 ms) and red (excitation filter: 531/40 nm, emission filter: 593/40 nm, […]
(§1) Duplicates were performed for each condition.
Fig. S2 Blue channel recording the Hoechst 33342 localization in the nuclei (left), green channel recording the GFP signal in the mitochondria (middle) and red channel recording the signal from HRO 2 (right) covalently attached to HaloTag protein in the mitochondr ia. Scale […]
3.2.2. HC-CAPA analysis protocol
As in ref. S11, for each cell, the DAPI and GFP channel images were used for the segmentation of the nuclei and whole cell body, respectively. Three successive filters have then been used for the cell selection process: […]

[1] = Solubility of streptavidin/peptide complexes in water; format: physicochemical
Procedure: However, this interpretation should not be overestimated because the CP50 = 2.5 ± 0.2 μM remained near those of single dithiolane quartets in 19 and 1.

HGM spheroids = experiment: 3D HC-CAPA, cytosolic delivery in multicellular spheroids; format: cell-based; conditions: for Penetration of HGM spheroids (suppression of emission of CAPA probe 2), in words: 20 μM, 6 h, then 2 for 45 min, cross-sectional CSDM images 80 μm from surface; for SP50, half maximal spheroid-penetration concentration: 3D HC-CAPA, HGM spheroids 350–400 μm, complexes 0 to max 20 μM, 2 or 6 h, 37 °C, then HRO 2 5 μM 45 min, average TAMRA intensity over entire spheroid, Hill analysis of DRCs, duplicates
Procedure: Spheroids of HGM cells with an average size of 350–400 μm were prepared in cell-repellent U-bottom 96-well plates following standard procedures (Fig. 4a).[1–26] In cross-sectional confocal spinning disc microscopy (CSDM) images taken 80 μm from the surface, GFP emission was homogeneously distributed (Fig. 4b). Similarly the homogeneous cross-sectional TAMRA emission upon addition of 2 was consistent with unhindered passive diffusion of the small, cationic CAPA probe across the spheroid (Fig. 4c, m, red circles, 1c). […] Line-scan analysis of the TAMRA intensity along the cross-section in the CSDM image gave an almost linear decrease (Fig. 4m, green squares). […] Comparison of the line-scan analyses for 20 μM 19 after 2 h and 6 h incubation illustrated how transporter 19 penetrates the spheroids with time from the periphery to the center as expected for operational transcytosis (Fig. 4m, l vs. i). […] At c ∼ SP50, thiol-mediated delivery decreases linearly with increasing depth because the limited amount of transporter 19 provided is gradually consumed by kinetically competing direct translocation and irreversible reaction with the HaloTags on the mitochondria of the cells on the way into the spheroids. […]
HGM cells were seeded at 5 × 10^3 cells/mL in FluoroBrite DMEM + 10% FBS on NunclonTM SpheraTM U-bottom 96-well sterile μ-Plates and kept at 37 °C with 5% CO2 for 3 days. After the spheroids were formed, the medium was exchanged to Leibovitz’s (6 × 200 μL/well) using a Biotek MultiFloTM FX plate washer, keeping a final volume of 135 μL/well.
Then, serial dilutions of the corresponding complexes 18-20 in PBS were prepared in a 96-well V-bottom plate and added to the μ-Plate containing the spheroids (15 μL/well, 10x final concentration in PBS) to reach a final volume of 150 μL/well (0 to maximum 20 μM). Cells were incubated for 2 or 6 h at 37 °C with 5% CO2. After this, cells were washed again and HRO 2 was added (15 μL/well, 50 μM in PBS) to reach a final volume of 150 μL/well (5 μM), except for the control wells, where only PBS was added (15 μL/well). After 45 min of incubation at 37 °C with 5% CO2, the plate was washed again. Then, the plate was kept for 1 h at 37 °C with 5% CO2 and was washed again. During imaging, samples were kept at 37 °C with 5% CO2. A z-stack of 19 images/well (10 μm per step) at 10x were recorded, using two channels: green (excitation filter: 475/34 nm, emission filter: 536/40 nm, exposure time: 200 ms) and red (excitation filter: 531/40 nm, emission filter: 593/40 nm, exposure time: 200 ms), […]
as §1
Fig. S4 TL channel (left), Green channel recording the GFP signal in the mitochondria (middle left) and red channel recording the signal from HRO 2 (middle right) covalently attached to HaloTag protein in the mitochondria. Merged images showing colocalization of G FP and HRO 2 signals (right). Images are 2D projections of all planes. Scale bar: 100 μm.
3.3.2 3D HC-CAPA analysis protocol
For each spheroid, the TL and green channel images were used for the segmentation of the object. A gaussian filter was applied to blur the image and allow the creation of the spheroid […]
Fig. S5 Green channel recording the GFP signal in the mitochondria (left), applied Gaussian filter (middle) to generate the spheroid mask in white (right). Images are 2D projections of all planes. Scale bar: 100 μm. […]
3.3.2 3D HC-CAPA results for uptake quantification […]

[2] = streptavidin/peptide complex in water

Substance	CP50, half maximal cell-penetration concentration (HGM cells)	Uptake activity in 2D CAPA, in words (HGM cells)	Solubility of complex in water, in words [1, 2]	Penetration of HGM spheroids (suppression of emission of CAPA probe 2), in words (HGM spheroids)	SP50, half maximal spheroid-penetration concentration (HGM spheroids)	Solubility of complex in water, in words [1]
EEEEEE [compound 23, streptavidin 3/peptide 13 (EEEEEE) 1 : 2 complex]	>20 µM	inactive	soluble			
EEEUUU [compound 19, 1 : 3 streptavidin 3/peptide 9 (EEEUUU) complex]	3.8 ± 0.2 µM	preserved activity		almost complete disappearance of all fluorescence; also recorded: suppressed fluorescence throughout the spheroid	5.3 ± 0.9 µM	
EEUUUU [compound 21, 1 : 3 streptavidin 3/peptide 11 (EEUUUU) complex]	2.5 ± 0.2 µM	most active of all transporters				
EUEUEU [compound 1]	3.6 ± 0.3 µM			suppressed fluorescence throughout the spheroid		
EUEUeU [compound 16, 1 : 3 streptavidin 3/peptide 6 (EUEUeU) complex]	16 ± 2 µM					
EUUUUU [streptavidin complex of EUUUUU peptide, insoluble, not finalized]						insoluble in water
KKKKKK [compound 25, streptavidin 3/peptide 14 (KKKKKK) 1 : 2 complex, isostructural CPP control]	2.8 ± 0.3 µM	in the range of the best dithiolane quartets		failed to penetrate HGM spheroids		
UUUEEE [compound 20, 1 : 3 streptavidin 3/peptide 10 (UUUEEE) complex]	> 20 µM	inactive			17 ± 6 µM	
UUUUUU [compound 22]	>20 µM		insoluble in water			
